Source: paper PMC10901769, “An anti-CRISPR that represses its own transcription while blocking Cas9-target DNA binding”
Where a chain is given by its changes, count along the chain named. One block for each molecule: values may come before it.

Columns and labels:
[1] = target: full-length AcrIIA15 (Staphylococcus (identified from Staphylococcus genomes)); assay: crystal structure; free full-length AcrIIA15; 2.34 Å
[2] = target: full-length AcrIIA15 (Staphylococcus (identified from Staphylococcus genomes)); assay: SEC; dimerization state of wild-type or mutated AcrIIA15; Superdex 75, 20 mM Tris-HCl pH 7.5, 0.5 M NaCl
[3] = target: full-length AcrIIA15 (Staphylococcus (identified from Staphylococcus genomes)); assay: crystal structure; AcrIIA15 (full-length or NTD) with IR1 promoter DNA, mixed at 2:1.1 in 20 mM Tris pH 7.5, 100 mM NaCl; 3.15 Å and 3.10 Å
[4] = target: full-length AcrIIA15 (Staphylococcus (identified from Staphylococcus genomes)); assay: cryo-EM structure; SaCas9-sgRNA-AcrIIA15-IR1 quaternary complex, mixed at 1:1.1:0.9:0.6, purified by SEC in 20 mM Tris pH 7.5, 0.1 M NaCl; 3.82 Å
[5] = target: full-length AcrIIA15 R2A mutant (Staphylococcus (identified from Staphylococcus genomes)); assay: SEC; dimerization state of wild-type or mutated AcrIIA15; Superdex 75, 20 mM Tris-HCl pH 7.5, 0.5 M NaCl
[6] = target: N-terminal domain of AcrIIA15 (AcrIIA15^NTD) (Staphylococcus (identified from Staphylococcus genomes)); assay: crystal structure; AcrIIA15 (full-length or NTD) with IR1 promoter DNA, mixed at 2:1.1 in 20 mM Tris pH 7.5, 100 mM NaCl; 3.15 Å and 3.10 Å
[7] = target: T1, AcrIIA15 full-length (UniProt PDB:8JG9_3 1-171); assay: SPR; Promoter EMSA: 20 mM Tris-HCl pH 7.5, 300 mM NaCl, on ice/4 C, 30 min; SaCas9 EMSA: 20 mM Tris pH 7.5, 200 mM NaCl, 10 mM EDTA, RT; SPR: 10 mM Na2HPO4, 2 mM KH2PO4, 0.3 M NaCl; SEC: 20 mM Tris pH 7.5, 300 mM NaCl; details: protein: recombinant; tags: C-terminal His6, or His6-Sumo removed by Ulp1; chain copies: 2; blunt
T1 sequence: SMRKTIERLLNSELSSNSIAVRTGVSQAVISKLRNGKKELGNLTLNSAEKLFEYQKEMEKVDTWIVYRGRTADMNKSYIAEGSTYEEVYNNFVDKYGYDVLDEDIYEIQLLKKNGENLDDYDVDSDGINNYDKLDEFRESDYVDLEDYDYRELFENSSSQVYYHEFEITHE

[8] = target: T2, SaCas9;AcrIIA15 full-length (Staphylococcus aureus;, UniProt J7RUA5;PDB:8JG9_3 1-1053;1-171, |); assay: cryo-EM; with sgRNA; AcrIIA15 dimer, two SaCas9-sgRNA; Promoter EMSA: 20 mM Tris-HCl pH 7.5, 300 mM NaCl, on ice/4 C, 30 min; SaCas9 EMSA: 20 mM Tris pH 7.5, 200 mM NaCl, 10 mM EDTA, RT; SPR: 10 mM Na2HPO4, 2 mM KH2PO4, 0.3 M NaCl; SEC: 20 mM Tris pH 7.5, 300 mM NaCl; details: protein: recombinant;recombinant; tags: His6-Sumo removed by Ulp1;C-terminal His6, or His6-Sumo removed by Ulp1; chain copies: 2;2; blunt
T2 sequence 1: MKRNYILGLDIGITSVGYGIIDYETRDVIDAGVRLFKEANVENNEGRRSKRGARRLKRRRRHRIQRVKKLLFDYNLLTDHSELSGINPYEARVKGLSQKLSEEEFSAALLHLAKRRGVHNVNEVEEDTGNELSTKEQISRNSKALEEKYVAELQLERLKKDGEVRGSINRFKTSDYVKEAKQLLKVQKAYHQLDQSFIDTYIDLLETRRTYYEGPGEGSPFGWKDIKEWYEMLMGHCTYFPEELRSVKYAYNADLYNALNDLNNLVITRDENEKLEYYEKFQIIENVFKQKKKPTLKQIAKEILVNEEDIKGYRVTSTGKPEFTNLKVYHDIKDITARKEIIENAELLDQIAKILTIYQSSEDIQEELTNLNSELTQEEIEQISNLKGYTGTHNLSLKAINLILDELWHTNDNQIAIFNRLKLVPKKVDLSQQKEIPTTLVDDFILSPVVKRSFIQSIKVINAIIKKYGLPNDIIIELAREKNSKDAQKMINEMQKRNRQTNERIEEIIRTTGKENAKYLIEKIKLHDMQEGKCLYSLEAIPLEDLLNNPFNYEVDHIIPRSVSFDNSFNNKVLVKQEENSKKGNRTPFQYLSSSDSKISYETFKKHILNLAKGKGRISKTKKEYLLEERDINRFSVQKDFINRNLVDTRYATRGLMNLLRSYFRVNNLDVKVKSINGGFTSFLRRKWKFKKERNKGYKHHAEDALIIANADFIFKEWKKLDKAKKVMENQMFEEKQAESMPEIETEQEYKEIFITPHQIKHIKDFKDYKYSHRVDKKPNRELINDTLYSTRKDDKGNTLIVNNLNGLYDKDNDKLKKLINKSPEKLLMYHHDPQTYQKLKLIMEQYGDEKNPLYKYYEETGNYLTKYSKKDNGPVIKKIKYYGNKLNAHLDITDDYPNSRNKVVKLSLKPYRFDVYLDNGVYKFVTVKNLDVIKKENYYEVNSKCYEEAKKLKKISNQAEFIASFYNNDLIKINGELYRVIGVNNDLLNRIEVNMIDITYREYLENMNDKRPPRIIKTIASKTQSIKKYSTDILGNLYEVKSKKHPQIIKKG
T2 sequence 2: T1 sequence

[9] = target: T3, AcrIIA15 NTD (UniProt PDB:8JFR_1 1-63); assay: crystal structure; Promoter EMSA: 20 mM Tris-HCl pH 7.5, 300 mM NaCl, on ice/4 C, 30 min; SaCas9 EMSA: 20 mM Tris pH 7.5, 200 mM NaCl, 10 mM EDTA, RT; SPR: 10 mM Na2HPO4, 2 mM KH2PO4, 0.3 M NaCl; SEC: 20 mM Tris pH 7.5, 300 mM NaCl; details: protein: recombinant; tags: C-His6 or His6-Sumo (removed); chain copies: 2; 5' overhang 1 nt on both strands
T3 sequence: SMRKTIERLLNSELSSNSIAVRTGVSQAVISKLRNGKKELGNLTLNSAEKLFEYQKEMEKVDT

[10] = target: T1, AcrIIA15 full-length; assay: as above; details: protein: recombinant; tags: C-terminal His6, or His6-Sumo removed by Ulp1; chain copies: 2; 5' overhang 1 nt on both strands
[11] = target: T1, AcrIIA15 full-length; assay: EMSA; Promoter EMSA: 20 mM Tris-HCl pH 7.5, 300 mM NaCl, on ice/4 C, 30 min; SaCas9 EMSA: 20 mM Tris pH 7.5, 200 mM NaCl, 10 mM EDTA, RT; SPR: 10 mM Na2HPO4, 2 mM KH2PO4, 0.3 M NaCl; SEC: 20 mM Tris pH 7.5, 300 mM NaCl; details: protein: recombinant; tags: C-terminal His6, or His6-Sumo removed by Ulp1; chain copies: 2; blunt
[12] = target: T4, AcrIIA15 K31A (UniProt PDB:8JG9_3 1-171, K32A); assay: as above; details: protein: recombinant; tags: C-terminal His6; chain copies: 2; label: 5'-Cy3 on strand 1; blunt
T4 sequence: T1 sequence with K32A

[13] = target: T5, AcrIIA15 R2A/L44A (UniProt PDB:8JG9_3 1-171, R3A;L45A); assay: as above; details: protein: recombinant; tags: C-terminal His6; label: 5'-Cy3 on strand 1; blunt
T5 sequence: T1 sequence with R3A, L45A

[14] = target: T6, AcrIIA15 K37A (UniProt PDB:8JG9_3 1-171, K38A); assay: as above; details: protein: recombinant; tags: C-terminal His6; chain copies: 2; label: 5'-Cy3 on strand 1; blunt
T6 sequence: T1 sequence with K38A

[15] = target: T7, AcrIIA15 L44A (UniProt PDB:8JG9_3 1-171, L45A); assay: as above; details: protein: recombinant; tags: C-terminal His6; label: 5'-Cy3 on strand 1; blunt
T7 sequence: T1 sequence with L45A

stoichiometry N [1]: 2 | stoichiometry N [2]: 2 | stoichiometry N [3]: 2 | stoichiometry N [4]: 2
Molecule: full-length AcrIIA15 (natural protein)

stoichiometry N [5]: 2
Molecule: full-length AcrIIA15 R2A mutant (natural protein)

stoichiometry N [6]: 2
Molecule: N-terminal domain of AcrIIA15 (AcrIIA15^NTD) (domain or fragment)

B1: IR2 (dsDNA)
DNA 1: TGACTTATGACGAACGTCATAATATA
DNA 2: TATATTATGACGTTCGTCATAAGTCA
Kd [7]: 1.8 ± 0.66 nM

B2: IR1 (dsDNA)
DNA 1: ATAATTATGACAAATGTCATAGAAAA
DNA 2: TTTTCTATGACATTTGTCATAATTAT
Kd [7]: 7.49 ± 0.6 nM | binding result [8]: binds

B3: IR1'' (dsDNA)
DNA 1: ATTATGACAAATGTCATAG
DNA 2: TCTATGACATTTGTCATAA
binding result [9]: binds | binding result [10]: binds

B4: IR1 mutant in four base pairs (dsDNA)
DNA 1: ATAATTGTTACAAATGTAACAGAAAA
DNA 2: TTTTCTGTTACATTTGTAACAATTAT
binding result [11]: no binding

B5: Cy3-IR1 (dsDNA)
DNA 1: ATAATTATGACAAATGTCATAGAAAA
DNA 2: TTTTCTATGACATTTGTCATAATTAT
binding result [12]: no binding | binding result [13]: no binding | binding result [14]: no binding | binding result [15]: no binding
